From patent publication US20120253008A1 (Ablynx, published 2012)

B1: 12A2 sv1-AAA-12A2 sv1-9GS-59C2 (VHH)
chain: DVQLVESGGGLVQPGGSLRLSCAASGRTFSYNPMGWFRQAPGKGRELVAAISRTGGSTYYPESVEGRFTISRDNAKRTVYLQMNSLRAEDTAVYYCAAAGVRAEQGRVRTLPSEYTFWGQGTQVTVSSAAAEVQLVESGGGLVQPGGSLRLSCAASGRTFSYNPMGWFRQAPGKGRELVAAISRTGGSTYYPESVEGRFTISRDNAKRTVYLQMNSLRAEDTAVYYCAAAGVRAEQGRVRTLPSEYTFWGQGTQVTVSSGGGGSGGGSRDWDFDVFGGGTPVGG
notes: bivalent anti-vWF Nanobody with one C-terminal 59C2 peptide; also called vWF-0055; vWF 0055
B2: peptide of SEQ ID NO: 143 (peptide)
peptide: AAARYWDYDVFGGGTPVGGAAA
notes: 56E4 with one additional N-terminal and three C-terminal alanines; used for the co-crystal with HSA; also called peptide based on EXP56E4

Experiments:
[1] = molecular target: T1, cynomolgus monkey serum albumin (cynomolgus monkey, UniProt A2V9Z4 25-608); assay: SPR, Biacore 3000, cynoSA on CM5 chip, pH5 against pH7
T1 construct: amine-coupled to a CM5 chip; also called CSA; cynoSA
Procedure: (§1) In brief, HSA and cynoSA were amine-coupled to a separate CM5 sensor chip at a density of respectively 1800RU and 1900RU. […] The three buffers used contained 50 mM phosphate, 150 mM NaCl and 0.005% surfactant P and were adjusted to either pH5, pH7 or pH8. Samples were injected at a flow-rate of 45 μL/min, association and dissociation were monitored during 120 sec and 300 sec. Binding curves were subsequently used to calculate the KD, association—and dissociation-rate constants with the BiaEvaluation software.

[2] = molecular target: T2, von Willebrand factor (human, UniProt P04275 764-2813); assay: inhibition ELISA: ristocetin-induced binding of plasma vWF to fixed human platelets (glycoprotein Ib), bound vWF detected with anti-VWF-HRP
T2 construct: vWF of the human plasma in which the compounds were diluted; multimeric; also called vWF; VWF

[3] = molecular target: T3, human serum albumin (human, UniProt P02768 25-609); assay: SPR, Biacore 3000, HSA on CM5 chip, pH5 against pH7
T3 construct: also called HSA
Procedure: as §1

[4] = molecular target: T3, human serum albumin; assay: X-ray co-crystal structure and in silico modelling
Procedure: The crystal structure was determined as follows: the purified proteins were used in crystallization trials employing both, a standard screen of approximately 1200 different conditions, as well as crystallization conditions identified using literature data. […] These conditions were also refined by systematically varying pH or precipitant concentrations. Crystals were obtained via the method of co-crystallization.
Crystals have been flash-frozen and measured at a temperature of 100K. The X-ray diffraction have been collected at the SWISS LIGHT SOURCE (SLS, Villigen, Switzerland) using cryogenic conditions. Data were processed using the programs XDS and XSCALE. The phase information necessary to determine and analyze the structure was obtained by molecular replacement. Subsequent model building and refinement was performed with the software packages CCP4 and COOT. The peptide parameterization was carried out with the program [sequence].

T1 sequence (A2V9Z4 25-608 limits assumed): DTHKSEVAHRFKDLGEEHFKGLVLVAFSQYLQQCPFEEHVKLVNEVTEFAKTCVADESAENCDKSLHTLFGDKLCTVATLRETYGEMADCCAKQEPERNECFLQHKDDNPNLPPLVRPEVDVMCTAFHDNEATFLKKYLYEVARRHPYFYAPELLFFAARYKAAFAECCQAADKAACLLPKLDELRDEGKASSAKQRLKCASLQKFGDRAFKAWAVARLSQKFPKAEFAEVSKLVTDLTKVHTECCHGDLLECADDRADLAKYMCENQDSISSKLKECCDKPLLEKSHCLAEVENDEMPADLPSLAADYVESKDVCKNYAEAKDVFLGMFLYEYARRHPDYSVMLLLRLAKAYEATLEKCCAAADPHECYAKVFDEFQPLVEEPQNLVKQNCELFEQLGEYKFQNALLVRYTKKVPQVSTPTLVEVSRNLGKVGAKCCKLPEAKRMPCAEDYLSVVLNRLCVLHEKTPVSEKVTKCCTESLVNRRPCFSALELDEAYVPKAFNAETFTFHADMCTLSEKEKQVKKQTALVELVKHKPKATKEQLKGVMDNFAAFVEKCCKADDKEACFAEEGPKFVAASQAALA

Binder | fold decrease of affinity at pH5 [1] [fold] | IC50 (read off the curve) [2] [nM] | fold decrease of affinity at pH5 [3] [fold] | binding result [4]
B1 | ~10 | ~10 | ~10 | 
B2 |  |  |  | binds
